# Test results taken from publication PMC12040988, “GET3B is involved in chloroplast biogenesis and interacts with the thylakoidal ALB3 and ALB4 insertases” (Plant Cell Reports, 2025).
# T1: GST-tagged mature full-length GET3b (GST-Get3b) (Arabidopsis thaliana, UniProt A1L4Y1 68-411)
# T1 construct: The results say 'GET3B C-terminally fused to GST'; The name GST-Get3b and the vector pGex-4T-3 fit GST at the N-terminus; also called AtGET3B; source: E. coli Rosetta2(DE3), purified (glutathione-sepharose); not shown: GST, N-terminal, kept
# T1 sequence (looked up): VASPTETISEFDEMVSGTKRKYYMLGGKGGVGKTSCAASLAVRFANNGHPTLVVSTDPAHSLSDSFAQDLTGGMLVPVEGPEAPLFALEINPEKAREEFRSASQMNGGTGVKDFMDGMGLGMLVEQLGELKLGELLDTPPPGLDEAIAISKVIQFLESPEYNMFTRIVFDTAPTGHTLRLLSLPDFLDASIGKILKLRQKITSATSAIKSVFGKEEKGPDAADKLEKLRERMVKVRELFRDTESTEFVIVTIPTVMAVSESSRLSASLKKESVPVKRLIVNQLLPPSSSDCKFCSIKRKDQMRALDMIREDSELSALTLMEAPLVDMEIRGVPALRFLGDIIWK
# Target: T1, GST-tagged mature full-length GET3b …
# Assay: pull-down; 50 μg GST-Get3b (or GST) with 20 μg Alb3C-His or Alb4C-His in 120 μl 1x PBS, 10 min at room temperature; held on glutathione resin 30 min, washed with 5 ml PBS, eluted with 10 mM reduced glutathione; immunoblot with antibodies against Alb3, Alb4 or GST
# Details: both partners purified
row,binding result,Binder
1,binds,"His-tagged C-terminal region of ALB3 (Alb3C-His) (domain or fragment, Arabidopsis thaliana, UniProt Q8LBP4 350-462, looked up, ALB3 of Arabidopsis thaliana, stromal C-terminal region, aa 350-462; also called Alb3-His; source: E. coli Rosetta2(DE3), purified (nickel-nitrilotriacetic acid); not shown: His tag, C-terminal, kept) VYLRKLGGAKPNMDENASKIISAGRAKRSIAQPDDAGERFRQLKEQEKRSKKNKAVAKDTVELVEESQSESEEGSDDEEEEAREGALASSTTSKPLPEVGQRRSKRSKRKRTV"
2,binds,"His-tagged C-terminal region of ALB4 (Alb4C-His) (domain or fragment, Arabidopsis thaliana, UniProt Q9FYL3 334-499, looked up, ALB4 (STIC1) of Arabidopsis thaliana, stromal C-terminal region, aa 334-499; source: E. coli Rosetta2(DE3), purified (nickel-nitrilotriacetic acid); not shown: His tag, C-terminal, kept) VWLQKYGGAKNPVEKFTNLVTKEDKTQQIEKSFSEPLVQKSVSELKIPREKGGEKVTPECPKPGERFRLLKEQEAKRRREKEERQKAEAALSNQNTDKAHEQDEKSDTAIVAEDDKKTELSAVDETSDGTVAVNGKPSIQKDETTNGTFGIGHDTEQQHSHETEKR"
